Kd data for one sequence are collected here from publication PMC10783497.

“And” between values parts separate entries of the source, which are not always exact repeats. Identical values can stand only once.

This series addresses streptavidin (on Sera-Mag magnetic microparticles) (UniProt P22629). The series is described as follows: magnetic bead pull-down, FAM fluorescence of eluted aptamer. The conditions noted are these: 1X PBS, or 2 M NaCl, or 2 M CDHP with 1X PBS; 90 min at room temperature; elution in 250 mM NaCl, 500 mM Tris-HCl pH 8.5.

Sequence of streptavidin (on Sera-Mag magnetic microparticles) (P22629 25-183): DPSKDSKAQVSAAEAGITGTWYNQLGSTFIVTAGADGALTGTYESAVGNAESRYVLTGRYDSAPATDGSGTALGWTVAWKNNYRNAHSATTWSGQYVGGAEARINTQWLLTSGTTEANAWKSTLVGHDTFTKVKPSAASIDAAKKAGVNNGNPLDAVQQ

With “ATTGACCGCTGTGTGACGCAACACTCAAT [St-21-1 aptamer]”, the Kd is 0.0945 µM and 0.0754 µM and 0.07 µM.
